In the domain aggregation screens of Martell et al. (2025):

Experiment: soluble fraction after stress (log2 fold change); higher = more stays soluble; pooled small domains, quantitative proteomics
Settings: stress: 50 degC
Procedure, shortened: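 Pooled custom libraries of small protein domains were measured in a high-throughput format, with quantitative proteomics as the read-out. Each library was stressed at 50°C. Aggregation propensity is given as the base-two logarithm of the fold change in how much of each protein stays soluble after the stress. Higher values mean a larger share of the protein remains in solution.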

Sequence	soluble fraction (log2)
HMSDVVFRINANGLNVSGLANGERVSVYDTTGKLVTTAVSTQDNGTLNLPLKQSGGIYIARTQSGVSFKFT	-0.411
HMEPADALVAALVARGVSPSTARITVKQYPATRIQPQLEVFDYLVAQKDPKVSRNPPGFLLSAIRGEYA	-0.188
HMEVKEVDYSAFMTMTEENSISKVEIEENQILFKKKGDDQTTYKTARMDDPALITRLHDQGVDFTGQ	0.0677
HMIAVIKPSATAEQKAGLVDWIRGQGIDVHISEGHDYTVLGLIGDTSKIDMDLIASLDIVDSVKRVA	-0.0298
HMTTIAQNISNYRTRANMTQQQVADKLSVSHHTVSKWELGINTPSVEDMQKLAQVFGVTITELVVD	-0.239
HMATVTVPNLKGMTPSGAESALAELNLKGAVGDSVESNDVENGKVASQDQAAGSDAKEGDTITYHLSS	0.0967
HMSQPLYWQIRRMVIDHDDANDVLQNTFIKAWSNIGSFRGDAKFSTWLYKIAVNESITFINKKKVQN	-0.469
HMDNIPAHIKAKIINYVNRNYPGAIIKDIERKSNGRYEAEIVYNNREYDLLFDAQGNFISASLDDK	0.123
HMSATPQRMSIINELDSARKNLSAYDLRDSLKDKGHSFNISTIYRVLSFWIDVGVVHKMDSSNTYL	0.147
HMEPAPELTPREQQVLARIALGMTDKAIAEELGVSHQTVRNHVARIYQKIKVHSRSQAVVWAREKGI	-0.192
HMLLTHEEQIVKRGWQAPVGPFAILDSRAEAMHGDLEMLRGDREAAEQHFRRAWQIIGPIVEQ	-0.0656
HMEAELNSLVKTYENMKPKAAAQVFEELDMDVLLDVVERMKEKKLAPILAQVTPTRAKEITYELTQRR	0.0638
HMGQAELPYSEFLREVNNGQVKSVIIEGSEITGFYKTSGTSFNVIAPDDPKLVERLMAQGVEVRAQPA	0.0327
HMSGAQIQQLLESRAPQPGMNPDMIVRRKTYMNNVFNALKGALLRVANGSSPEEVKTEVDAAIQVDPDKL	0.0889
HMPIDQAKRKKEIIQNFGIRKIYKFSEIFDLKFGRDNIIVTFLIILDMIKEGVVEINENKEEIEFEYK	-0.166
HMVPLTPGELVGTEVRVLWWKEGRGEVIASSRGHQLTLEAHSEDPLRAGSTAVVLEAADDVLVVTS	-0.569
HMELVIGESLAVELLRPGKEDGQALGYLPDGSMVVVNNGRAFVGKRVTAEIIGVIRSAGGKMVFSNLLGE	-2.68
HMHPRDREENKYLLLRGERIYEESIGEKRLYVEAALHKYEKALSSYDTGLIDEAKEEFKKFLEEIEEA	-0.0765
HMGELYGTDQYKDGDAQDTNIGKLLEVNIDGKWQVATTGTSRFEFAGVMDDNGHKLIMISVLPEAKTV	-0.18
HMLSTGIIIGDNVALRKTASSNGGIITRLDEGTVVKILASNVNAEWYQVEAGTKTGYVNRLYVNID	-0.293
HMAKLGITQREQEVLQLLVTGKTYKEIAAELFISLPTVKTHVSNIYSKAKVRNRLELSNLINYI	-2.73
HMPQPDVIEVRQGIVTGMRPDRRTGWLRDEEDAAGEPKSFSIDVITPKGRTPGKGAVVTYTLTNGKITEVK	-0.0415
HMQALDNNDALEEIIKKVITENPSQVTEFRNGKDSLMNFLVGKVMAASGGKANPKTLPETIEKIIK	0.12
HMGASSLVGRSARVLQAVTDSDGRIKLAGETWSARLAAGATSTVGPGEEVRVIAIHGATAIVAPV	0.0322
HMEAQAHYDAIYKAHPNADSIAQSAEFKAWVDAQPSVVRNAYWQLFDPKEGGTAEQIVEVFDAFVKSS	-0.151
HMILESREKYLGEVLEVLVEEEKEGEYFGYSQNYLRVKFKLEEKNLINQLINIKIKSIEDDILIGEKEN	-1.46

Sequence	soluble fraction (log2)
HMRLSPTMVETLIAMLNRNAYPAYENNSRTFASLEERGLIQPDIEGNWSLTDTGHQTALKLLK	0.0915
HMNNWYESSIKSLVEEYFREHGFSVVFDSSEFWDVFIEKYHKQIPSSQIALFDQVAAEARSYAFNKK	0.116
HMALGRTGEVYLPIPAGRAGHGKISITLQGALREVDAVTAGEALPRGTSVRVVDVAGNGVLLVEK	-0.059
HMSPSLVEAMRLRMYEMGLNQAKLSELLGVSPSRVSDYLTGRSEPTLKVARDISRKLNIDASIVLG	-1.07
HMKGKITTNWVSLTSDLGWLRSELYSSGSVLEERISNEGLIELHLENFQNDLIKLLEVEGFDLIKE	-3.1
HMNRITEFVVPEGTKKIRADKLLAESFPDHSRSDFHRAFDASLVRLEGQPISKNRKISQGDVLVFEMPEI	0.281
HMTNLKALRESKGVSQQTVADYLGITRQAYGNYETGKRQADYAALLRLAAFFGVSVDALLQP	-0.299
HMRNLYEILGVSKDAPQGEIKSAYRKLAKTYHPDLNPNNEKAAELFKEINQAYEVLSDETKRRHYDQFGEA	0.312
HMTTHEQVAILRRELNGLVGAWHHRTGQAHGVTHSKLRKELGGPPAAVASAAQLSARIEKIRQWAT	-0.635
HMIVLPGEELEVHIVQEGKEDGQGVAYLDDGTMVVVEGGRPYVDSFAYVAVTRVLQTGAGRIIFAHPTR	-0.832
HMEDLAERLDNLSTMYAKMDPVRAAQVLLESKNKSENIEVLKRLKPKSLGLILENMPPREAYDYVSELQ	0.0712
HMSDYYEVLGVTRQADAEEIKRAYRRKARQLHPDVAGPGHEEEFKEVTVAYEVLSDPEKRQAYDLGGQDAL	0.179
HMNIGIVSLAAVPMRKEPSDRAEMVNQILFGETFDVLEEQEKWTLVQLHHDAYQGWIDRKQWDYASGIAD	-1.01
HMNAKVVAPIPGTVLSIDIKVGDVIKIGDRLLVLEAMKMENNIASEKSGTVTAVHVKVGQQVLQNELMIEL	-1.39
HMRVDRSALDSIPGVGPGRKRTLLHHFGSARAVEASGLADLESIRGISKALARKIYDFFHPE	-1.38
HMIGKLTSSKLAAIHKMKTNELLAHFTEKGFLNINDAGKYILTQQGKDVGAEFKTSQYGGYFLWPENIE	-0.841
HMSPLALLTPRELDILRAMTAGASNKEIARQFAIAETTVKIHVQHILRKLDVTTRVHAAVMASESGL	-2.66
HMDSDIGQQLKILLTVGTFMPSTELKAIAQQFGMKKPTDLKEWVELESDTQRIKGNPTKGYWINEINDL	-0.562
HMFSPTKLKEKRESQGLSQSQLASSLGISRASYFNWESGKTKPNQNNLSKLSEILNVDPRYF	0.355
HMRKTYHVDAYQDDKWWVLQVQEMPNAISQVKSLDQADEWIREAINIVSNEPEDSFDVVIIPV	-0.612
HMNDELMEQIDEWHKAEKHQEIIDALEQIPEAERDFETTGFLARAYNNIEEYAKAADLLESVRE	0.0873
HMDHWQSVNSALELLEVSRRTLYDYISRKKLQTKKEGKYRYVWIDDDVIEEIKTSKSAYIEINN	-2.19
HMRSVEVAAEPGMVLEDRQTGFVGAVVAVEKSGGTHLVVLEDRHGLRRGFPLGPGFWLEGRPVVLAPPP	-0.227
HMINIGANIRAIRKQKNIKQVDLVRLLQLEGVEITRETLVKIESGVQHIKASQLRGIRDALGTTYDELL	-2.95
HMALSVRNRMSDLLRMLGDGEFHRFENLFSLEEGRHGIVVTFLAMLELAKEQLVEISQGESLAPIYLKSLA	-0.716
HMAPLATIHVSSLSQKPFYLYGTFEDRRGNHLFFLEQIMGENKSIPVAMPSSAINPKIHASLTPPKG	-0.32

Sequence	soluble fraction (log2)
HMDRVTYPVSFNGKVRFQLELDAGMNAKEVETAALGHEKTAAQIEGKTIRKVIVVPGRIINIVV	-0.259
HMESYWVVLRPMAAGTQIGANDLGYRSVALGAAAKNYLAASTNPIGSITRRRLVAGELLQGSSLTDDARA	-0.873
HMELEWENYSLAGEIKTTVMLYQNRRNGLPEEAKQKADALMKQLKQAVIENDAQKVEKIDDALTALLFE	-0.15
HMTIPSYAEAVRYVRRQPRINTSTLADGLGIRWSLALDYLERMARSGVVGAIEDDGWWPVAR	-0.71
HMKGSPFSQLPKEKKKRILQAAIEVFAQNDYKHASTDEIASRAGISKGLLFYYFHDKKTLYFYLGEYLKR	-0.0373
HMKIAPRTAENQQLRKMILEIYTTSKKRVGPAKVRRMLLRDYGISISIGRVYRLMSTMNLPKMS	-0.258
HMKVNMIIVMKPGARETDIQEVSNVLKSAGLGVHISKGTERTIIGVIGDKRLLNGIPLDLMHGVDKLVPIM	0.0193
HMEENIKKDIEVPNIEGLTIDEAKKRLKEVNLNISIEDMEEKEGTEIITQQLPKAGIKVKEGVAIIAY	0.0824
HMLVLAENMDVIFTRRTLDDHVVVDYKTTIGEMVKNDEIKGENMDELISAVEKDGYELVSSTSGEIIFLND	-1.2
HMKKERITWDERLERFAKYITENESLPYPSSKEHAWFEENKALYDAGELESVRAQSFSFLLKILRRMNLI	-0.278
HMESGNLIFTNAPIADVVNAIETRYGKKLQASNQTSDLQFTGIFKNTDEFSTVVKTIEIALGLQFEV	-1.19
HMQNGNLVDVYLNWRGKYYAIKMFFPNSKMPRRSDVQDQIVKVYPDARVQSFQVSKYVPGQPFL	-1.62
HMSVFTPLTRSELETFLAPYELGRLLDFQGIAAGSENTNYFISLEKGEYVLTLVERGPVAEMPFFIELLD	-0.982
HMIDLSELINKTGSAYTNLRPSGTAVIGDDRVDVVTEGTFVEKDRPVKVVAVEGQRVVVREVE	0.178
HMGQLSDREALTVLAREALVELPRAAGDYRNGRTAALQSLVGRVMRKTAGRGNPALLQEIFRSLL	-0.436
HMHLPDNAVSIISELKMTPEEVLELIGKLPHDFLFLPYSQRKKIIVDLIPNKDYKLLMSLIKKFML	-1.12
HMRDFTQPQTASIGPRMREALARGTMTVEELREQFRTQEFPHESVRTAFLEELERVAAELGLA	-0.0676
HMKPNEYVSGETFPYLGKNYRLKVLHGSENSVRLKGGYFITTISNRDSQLSTVKSLLEDWYQTHADK	0.0439
HMSKHATLLEALADLSVKLKPHSQLPSERALSEEYGVSRMTLRRAIDVLQARGYIYSVPSKGLFVSEP	-1.74
HMLENSLDHIEGIGPKTKDTLLTYFKSVSKIKSANPSILAELIGAAKTKILLAAFEKEKTTS	-0.017
HMLTTIRKATVNDKTRIMEIYAYARQFMAEHGNPNQWKNNNPSEETIDNDIAKQEMYVIETDGEVHAVFY	-1.44
HMSGPDGLTEREIEVLRLLASGLSNRAIGERLYISTNTAANHVRSILLKTGAANRTQAAMYAADHEML	-1.37
HMRNERDRQLYAAMEKLKAEYREALYLVYFENMSYRDAAAVMAQTEKQISNLVYRGKQSLKTILEQEGF	-2.65
HMNGDWISARQEYYIRGLWDLASRAKDEASLQAMLQRIAGVTQIEWISKEKATKVILALRDIAKK	-1.68
